Test results as given in patent US20150344570A1 (published 2015).

T1: FcγRIIb extracellular domain with C-terminal His tag (human, UniProt P31994 43-217)
T1 construct: extracellular domain; also called FcgRIIb; CD32B; not shown: His tag at the C terminus
T1 sequence (looked up): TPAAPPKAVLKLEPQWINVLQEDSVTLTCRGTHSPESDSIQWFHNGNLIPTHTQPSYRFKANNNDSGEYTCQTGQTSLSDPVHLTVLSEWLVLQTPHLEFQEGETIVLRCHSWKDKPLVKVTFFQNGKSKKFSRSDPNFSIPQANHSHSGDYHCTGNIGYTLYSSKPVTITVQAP


Assays:
[1] = target: T1, FcγRIIb extracellular domain with …; assay: SPR (Biacore), antibody captured, FcγR analyte; relative to GpH7-A5/GpH7-B3/GpL16-k0 = 100
[2] = target: T2, FcγRIa extracellular domain with C-terminal His tag (human, UniProt P12314 16-292); assay: as above
T2 construct: extracellular domain; also called FcgRI; CD64; not shown: His tag at the C terminus
T2 sequence (P12314 16-292): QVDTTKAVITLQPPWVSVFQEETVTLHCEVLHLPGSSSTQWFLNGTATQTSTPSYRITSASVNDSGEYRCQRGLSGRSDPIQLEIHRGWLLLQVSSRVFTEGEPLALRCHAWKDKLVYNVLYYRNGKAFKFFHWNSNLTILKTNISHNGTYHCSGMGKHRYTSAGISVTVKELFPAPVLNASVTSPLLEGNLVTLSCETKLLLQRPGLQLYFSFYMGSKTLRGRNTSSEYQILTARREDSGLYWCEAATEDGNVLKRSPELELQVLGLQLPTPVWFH

[3] = target: T2, FcγRIa extracellular domain with …; assay: SPR; He/Con_1a divided by He/Con_2b (FcγRIa against FcγRIIb)

Binder	He/Con_2b [1]	He/Con_1a [2]	He_1a/2b (Ia/IIb) [3] [ratio]
GpH7-A5/GpH7-B3 variant G236_20W/GpL16-k0 (antibody, human IgG1, kappa, Heterodimerized anti-glypican-3 IgG1; mutation only in the GpH7-B3 H chain; also called He Ab; GpH7-A5/GpH7-B3-03-20W/GpL16-k0) heavy 1: not shown heavy 2: not shown light: DIVMTQSPLSLPVTPGEPASISCQASESLVHSNRNTYLHWYLQKPGQSPQLLIYKVSNRFSGVPDRFSGSGSGTDFTLKISRVEAEDVGVYYCSQNTHVPPTFGQGTKVEIERTVAAPSVFIFPPSDEQLKSGTASVVCLLNNFYPREAKVQWKVDNALQSGNSQESVTEQDSKDSTYSLSSTLTLSKADYEKHKVYACEVTHQGLSSPVTKSFNRGEC	58.2 % of HeCon Ab	105 % of HeCon Ab	1.81
GpH7-A5/GpH7-B3 variant P238_02A/GpL16-k0 (antibody, human IgG1, kappa, Heterodimerized anti-glypican-3 IgG1; mutation only in the GpH7-B3 H chain; also called He Ab) heavy 1: not shown heavy 2: not shown light: DIVMTQSPLSLPVTPGEPASISCQASESLVHSNRNTYLHWYLQKPGQSPQLLIYKVSNRFSGVPDRFSGSGSGTDFTLKISRVEAEDVGVYYCSQNTHVPPTFGQGTKVEIERTVAAPSVFIFPPSDEQLKSGTASVVCLLNNFYPREAKVQWKVDNALQSGNSQESVTEQDSKDSTYSLSSTLTLSKADYEKHKVYACEVTHQGLSSPVTKSFNRGEC	57.4 % of HeCon Ab	95.2 % of HeCon Ab	1.66
GpH7-A5/GpH7-B3 variant G237_05P/GpL16-k0 (antibody, human IgG1, kappa, Heterodimerized anti-glypican-3 IgG1; mutation only in the GpH7-B3 H chain; also called He Ab) heavy 1: not shown heavy 2: not shown light: DIVMTQSPLSLPVTPGEPASISCQASESLVHSNRNTYLHWYLQKPGQSPQLLIYKVSNRFSGVPDRFSGSGSGTDFTLKISRVEAEDVGVYYCSQNTHVPPTFGQGTKVEIERTVAAPSVFIFPPSDEQLKSGTASVVCLLNNFYPREAKVQWKVDNALQSGNSQESVTEQDSKDSTYSLSSTLTLSKADYEKHKVYACEVTHQGLSSPVTKSFNRGEC	24.6 % of HeCon Ab	44.5 % of HeCon Ab	1.81
GpH7-A5/GpH7-B3 variant G237_14T/GpL16-k0 (antibody, human IgG1, kappa, Heterodimerized anti-glypican-3 IgG1; mutation only in the GpH7-B3 H chain; also called He Ab) heavy 1: not shown heavy 2: not shown light: DIVMTQSPLSLPVTPGEPASISCQASESLVHSNRNTYLHWYLQKPGQSPQLLIYKVSNRFSGVPDRFSGSGSGTDFTLKISRVEAEDVGVYYCSQNTHVPPTFGQGTKVEIERTVAAPSVFIFPPSDEQLKSGTASVVCLLNNFYPREAKVQWKVDNALQSGNSQESVTEQDSKDSTYSLSSTLTLSKADYEKHKVYACEVTHQGLSSPVTKSFNRGEC	54.8 % of HeCon Ab	82.3 % of HeCon Ab	1.5
GpH7-A5/GpH7-B3 variant P238_01G/GpL16-k0 (antibody, human IgG1, kappa, Heterodimerized anti-glypican-3 IgG1; mutation only in the GpH7-B3 H chain; also called He Ab) heavy 1: not shown heavy 2: not shown light: DIVMTQSPLSLPVTPGEPASISCQASESLVHSNRNTYLHWYLQKPGQSPQLLIYKVSNRFSGVPDRFSGSGSGTDFTLKISRVEAEDVGVYYCSQNTHVPPTFGQGTKVEIERTVAAPSVFIFPPSDEQLKSGTASVVCLLNNFYPREAKVQWKVDNALQSGNSQESVTEQDSKDSTYSLSSTLTLSKADYEKHKVYACEVTHQGLSSPVTKSFNRGEC	56 % of HeCon Ab	92.9 % of HeCon Ab	1.66
GpH7-A5/GpH7-B3 variant P238_07I/GpL16-k0 (antibody, human IgG1, kappa, Heterodimerized anti-glypican-3 IgG1; mutation only in the GpH7-B3 H chain; also called He Ab) heavy 1: not shown heavy 2: not shown light: DIVMTQSPLSLPVTPGEPASISCQASESLVHSNRNTYLHWYLQKPGQSPQLLIYKVSNRFSGVPDRFSGSGSGTDFTLKISRVEAEDVGVYYCSQNTHVPPTFGQGTKVEIERTVAAPSVFIFPPSDEQLKSGTASVVCLLNNFYPREAKVQWKVDNALQSGNSQESVTEQDSKDSTYSLSSTLTLSKADYEKHKVYACEVTHQGLSSPVTKSFNRGEC	80 % of HeCon Ab	99.1 % of HeCon Ab	1.24
GpH7-A5/GpH7-B3 variant G237_16H/GpL16-k0 (antibody, human IgG1, kappa, Heterodimerized anti-glypican-3 IgG1; mutation only in the GpH7-B3 H chain; also called He Ab) heavy 1: not shown heavy 2: not shown light: DIVMTQSPLSLPVTPGEPASISCQASESLVHSNRNTYLHWYLQKPGQSPQLLIYKVSNRFSGVPDRFSGSGSGTDFTLKISRVEAEDVGVYYCSQNTHVPPTFGQGTKVEIERTVAAPSVFIFPPSDEQLKSGTASVVCLLNNFYPREAKVQWKVDNALQSGNSQESVTEQDSKDSTYSLSSTLTLSKADYEKHKVYACEVTHQGLSSPVTKSFNRGEC	55.2 % of HeCon Ab	72.6 % of HeCon Ab	1.32
GpH7-A5/GpH7-B3 variant G237_03V/GpL16-k0 (antibody, human IgG1, kappa, Heterodimerized anti-glypican-3 IgG1; mutation only in the GpH7-B3 H chain; also called He Ab) heavy 1: not shown heavy 2: not shown light: DIVMTQSPLSLPVTPGEPASISCQASESLVHSNRNTYLHWYLQKPGQSPQLLIYKVSNRFSGVPDRFSGSGSGTDFTLKISRVEAEDVGVYYCSQNTHVPPTFGQGTKVEIERTVAAPSVFIFPPSDEQLKSGTASVVCLLNNFYPREAKVQWKVDNALQSGNSQESVTEQDSKDSTYSLSSTLTLSKADYEKHKVYACEVTHQGLSSPVTKSFNRGEC	61.4 % of HeCon Ab	78.5 % of HeCon Ab	1.28
